In article doi:10.1101/2025.03.26.645558:

Experiments:
[1] = target: E. fergusonii BrxB WT (Escherichia fergusonii); experiment: SEC; analytical SEC of BrxB alone on Superdex 75 increase 10/300 GL, 10 μM, 20 mM Tris HCl pH 7.9, 150 mM NaCl; monomer and dimer
[2] = target: E. fergusonii BrxB WT (Escherichia fergusonii); experiment: native MS; collected BrxB SEC peaks exchanged into 10 mM ammonium bicarbonate, 0.5 mg/ml, ES+-ToF MS (Xevo QToF)

Substance: E. fergusonii BrxB WT (natural protein)
- stoichiometry N [1]: 2
- stoichiometry N [2]: 2
